The values below come from patent publication US20140005241 (The Curators of the University of Missouri, published 2014).

The data set addresses SARS-CoV nsp13 helicase (SARS coronavirus, UniProt P0C6X7 P0C6X7:5302-5902). As to the kind of experiment: EMSA. The conditions noted are these: tags: GST (baculovirus) or His6; label: 5'-Cy3; 20 nt 5' overhang, 40 bp duplex.

B1: 60/40-mer (20ss:40ds) DNA (dsDNA)
DNA 1: TAGATAGCATTAGATAGCCACAGATAGCATCCTAGATAGCATTGGTGCTCGAACAGTGAC
DNA 2: GTCACTGTTCGAGCACCAATGCTATCTAGGATGCTATCTG
On to B1, for which the binding result is on record as “binds”.
